Assay [1] addresses T1, Rhesus IL-18Rβ (rhesus, UniProt F7HHC1 20-356).
T1 construct: also called rhesus IL-18 receptor beta; monkey IL-18Rβ
T1 sequence: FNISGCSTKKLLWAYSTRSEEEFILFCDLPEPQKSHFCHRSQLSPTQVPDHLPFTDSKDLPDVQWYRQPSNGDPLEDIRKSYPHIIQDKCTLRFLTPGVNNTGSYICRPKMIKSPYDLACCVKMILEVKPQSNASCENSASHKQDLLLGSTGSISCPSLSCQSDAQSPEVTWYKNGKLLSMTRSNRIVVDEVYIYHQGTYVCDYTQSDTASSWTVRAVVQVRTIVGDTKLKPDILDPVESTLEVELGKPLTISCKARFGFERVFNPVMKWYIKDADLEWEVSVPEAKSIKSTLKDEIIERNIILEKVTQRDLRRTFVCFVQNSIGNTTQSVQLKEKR
The assay is described as follows: SPR. Background: SPR reads the build-up and loss of mass on a sensor chip optically.

Assay [2] has as its target T1, Rhesus IL-18Rβ. Kind of assay: multipoint direct binding ELISA. In general terms: ELISA stands for enzyme-linked immunosorbent assay.

B1: IgG 3131 (antibody, V domains shown)
VH: EVQLVESGGGLVQPGGSLRLSCAASGFNLYYSSMHWVRQAPGKGLEWVASIYSSYGYTYYADSVKGRFTISADTSKNTAYLQMNSLRAEDTAVYYCARSSFSHGYGWYGLDYWGQGTLVTVSS
VL: DIQMTQSPSSLSASVGDRVTITCRASQSVSSAVAWYQQKPGKAPKLLIYSASSLYSGVPSRFSGSRSGTDFTLTISSLQPEDFATYYCQQYGYHYAGLITFGQGTKVEIKR
notes: IgG made by sub-cloning the Fab CDR regions into IgG expression constructs; VL-CL with FLAG tag; also called I3131
For the molecule B1, in the assay with Rhesus IL-18Rβ [1], binding was characterised by a dissociation constant (Kd) of 3.9 nM; the off-rate constant (koff) (usually the rate constant with which the complex falls apart) stood at 0.00015 s⁻¹; the on-rate constant (kon) (in general, a measure of how fast the partners come together) worked out at 38000 M⁻¹ s⁻¹. Besides, the EC50 (commonly the concentration needed to bring the measured effect to its halfway point) in the assay with Rhesus IL-18Rβ [2] came to 11.5 nM.

For the origin of these results see patent publication US20240262919A1 (SHANGHAITECH UNIVERSITY, published 2024).
